# Results published in IntAct's records for PubMed 21743455.
# B1: Wnt inhibitory factor 1 (Homo sapiens), Q9Y5W5 (parent)
# chain: MARRSAFPAAALWLWSILLCLLALRAEAGPPQEESLYLWIDAHQARVLIGFEEDILIVSEGKMAPFTHDFRKAQQRMPAIPVNIHSMNFTWQAAGQAEYFYEFLSLRSLDKGIMADPTVNVPLLGTVPHKASVVQVGFPCLGKQDGVAAFEVDVIVMNSEGNTILQTPQNAIFFKTCQQAECPGGCRNGGFCNERRICECPDGFHGPHCEKALCTPRCMNGGLCVTPGFCICPPGFYGVNCDKANCSTTCFNGGTCFYPGKCICPPGLEGEQCEISKCPQPCRNGGKCIGKSKCKCSKGYQGDLCSKPVCEPGCGAHGTCHEPNKCQCQEGWHGRHCNKRYEASLIHALRPAGAQLRQHTPSLKKAEERRDPPESNYIW
# Variants of: B1
# Details: with wnt3a_mouse Wnt3a
row,Variant,effect of a mutation on the interaction
1,M77W,decreasing interaction
